Source: paper PMC4034690
Blank lines part the entries; values can stand above or below the substance they belong to.

How the values were obtained:
[1] = biological target: γ-TuSC^Spc98Δ1–156 [S. cerevisiae]; experiment: GST pull-down, immunoblot anti-His (bound Spc97/Spc98), Li-cor quantification; details: 300 nM Spc110 1-220; read off a plot; scale: %
[2] = biological target: γ-TuSC^Spc98Δ1–156 [S. cerevisiae]; experiment: GST pull-down, immunoblot anti-Tub4 (bound Tub4), Li-cor quantification; details: 300 nM Spc110 1-220; read off a plot; scale: %
[3] = biological target: γ-tubulin small complex (γ-TuSC) [S. cerevisiae]; experiment: as above; details: 300 nM Spc110 1-220; read off a plot
[4] = biological target: γ-tubulin small complex (γ-TuSC) [S. cerevisiae]; experiment: GST pull-down, immunoblot anti-His (bound Spc97, Spc98), Li-cor quantification; details: 300 nM Spc110 1-220; read off a plot
[5] = biological target: γ-tubulin small complex (γ-TuSC), P53378;P38863;P53540; experiment: GST pull-down, immunoblot anti-His (bound Spc97/Spc98), Li-cor quantification; details: 300 nM Spc110 1-220; read off a plot
[6] = biological target: γ-TuSC^Spc98Δ1–156, P53378;P38863;P53540; experiment: as above; details: 300 nM Spc110 1-220; parent: est. 6; read off a plot; scale: %
[7] = biological target: γ-tubulin small complex (γ-TuSC), P53378;P38863;P53540; experiment: GST pull-down, immunoblot anti-Tub4 (bound Tub4), Li-cor quantification; details: 300 nM Spc110 1-220; read off a plot
[8] = biological target: γ-TuSC^Spc98Δ1–156, P53378;P38863;P53540; experiment: as above; details: 300 nM Spc110 1-220; parent: est. 42; read off a plot; scale: %
[9] = biological target: γ-tubulin small complex (γ-TuSC) (S. cerevisiae) (UniProt P53378); experiment: SEC; γ-TuSC mixed with GST-Spc110^1–220 variant in 1:4 molar ratio (2.3:9.3) in TB150 buffer, 1 hr at 4°C, Superdex 200 10/300 or Superose 6 10/300; shift of γ-TuSC to the void volume; fractions by SDS-PAGE and silver staining; void-volume fraction also by negative-stain electron microscopy
[10] = biological target: GST-Spc110^1–220-5D (S. cerevisiae) (UniProt P32380)
[11] = biological target: GST-Spc110^1–220-3D (S. cerevisiae) (UniProt P32380)
[12] = biological target: GST-Spc110^1–220-2D (S. cerevisiae) (UniProt P32380)
[13] = biological target: γ-tubulin small complex (γ-TuSC) (S. cerevisiae) (UniProt P53378); experiment: SEC; as a3 (TB150, Superose 6 10/300) but with the concentrations of γ-TuSC and Spc110^1–220 variants doubled (Figure 2—figure supplement 2A)

response [1]: 6 | response [2]: 42
Substance: GST-Spc110^1–220 (wild type, from E. coli, non-phosphorylated) mutant S36D; S60D; T64D; T68D; S91D [S. cerevisiae] / γ-TuSC^Spc98Δ1–156 [S. cerevisiae] chain 1 S36D, chain 1 S60D, chain 1 T64D, chain 1 T68D, chain 1 S91D

response [3]: 11000 RU | response [4]: 8300 RU
Substance: GST-Spc110^1–220 (wild type, from E. coli, non-phosphorylated) mutant S36D; S60D; T64D; T68D; S91D [S. cerevisiae] / γ-tubulin small complex (γ-TuSC) [S. cerevisiae] chain 1 S36D, chain 1 S60D, chain 1 T64D, chain 1 T68D, chain 1 S91D

response [3]: 3300 RU | response [4]: 3300 RU
Substance: GST-Spc110^1–220 (wild type, from E. coli, non-phosphorylated) mutant S36D; S91D [S. cerevisiae] / γ-tubulin small complex (γ-TuSC) [S. cerevisiae] chain 1 S36D, chain 1 S91D

response [3]: 10000 RU | response [4]: 7400 RU
Substance: GST-Spc110^1–220 (wild type, from E. coli, non-phosphorylated) mutant S60D; T64D; T68D [S. cerevisiae] / γ-tubulin small complex (γ-TuSC) [S. cerevisiae] chain 1 S60D, chain 1 T64D, chain 1 T68D

percent of parent [5]: 45% | response [6]: 3 | percent of parent [7]: 49% | response [8]: 34
Substance: GST-Spc110^1–220-5D (from UniProt P32380) CM1-QA

percent of parent [5]: 16% | response [6]: 9 | percent of parent [7]: 40% | response [8]: 32
Substance: GST-Spc110^1–220-5D (from UniProt P32380) T18D; CM1-QA

stoichiometry N [9]: > 14 | in vitro MT nucleation activity (MTs/field normalised to buffer only); 3 μM γ-TuSC pre-incubated with 15 μM GST-Spc110^1–220 variant; compared to the buffer control and γ-TuSC alone [10]: 3 fold | in vitro MT nucleation activity (MTs/field normalised to buffer only); 3 μM γ-TuSC pre-incubated with 15 μM GST-Spc110^1–220 variant; compared to the buffer control and γ-TuSC alone [11]: 3 fold | in vitro MT nucleation activity (MTs/field normalised to buffer only); 3 μM γ-TuSC pre-incubated with 15 μM GST-Spc110^1–220 variant; compared to the buffer control and γ-TuSC alone [12]: 3 fold | stoichiometry N [13]: 2
Substance: γ-tubulin small complex (γ-TuSC), P53378 1-473; P38863 1-823; P53540 1-846
